Results: PMC8136826

Target: Cas12a ΔBH (Francisella novicida, UniProt A0Q7Q2 1-1300, del953-969)
Assay: EMSA

B1: crRNA + dsDNA target (58 nt, TS/NTS) (mixed)
RNA: UAAUUUCUACUGUUGUAGAUGUGAUAAGUGGAAUGCCAUGUGGG
DNA 1: ACTCAATTTTGACAGCCCACATGGCATTCCACTTATCACTAAAGGCATCCTTCCACGT
DNA 2: ACGTGGAAGGATGCCTTTAGTGATAAGTGGAATGCCATGTGGGCTGTCAAAATTGAGT
- binding result: binds
